This is an account of results in PMC2894445.

Assay [1] concerns the target Nup205 (Xenopus laevis (endogenous in Xenopus egg cytosol)). Put plainly: co-IP.
Assay [2] has as its target Nup188 (Xenopus laevis (endogenous in Xenopus egg cytosol)). Put plainly: co-IP.

B1: Nup93 (natural protein)
chain: MDGEGFGELLQQAEQLAAETEGVTELPHVERNLQEIQQAGERLRSKTMTRTSQESANVKASVLLGSRGLDISHISQRLESLSAATTFEPLEPVKDTDIQGFLKNEKDNALLSAIEESRKRTFVMAEEYHRESMLVEWEQVKQRVLHTLLASGEDALDFTQESETSYISESGAPGRSSLDNVEMAYARQMYMYNEKVVSGHLQPSLVDLCTEAAERLDDKNVSDLWVMVKQMTDVPLIPASDTLKSRCSGQMQMAFVRQALNYLEQSYKNYTLISVFANLQQAQLGGVPGTYNLVRSFLNIRLPTPIPGLQDGEIEGYPVWALIYYCMRCGDLMAAQQVVNRAQHQLGDFKNCFQEYIHNKDRRLSPTTENKLRLHYRRAVRASTDPYKRAVYCIIGRCDVSDNHSEVADKTEDYLWLKLSQVCFEDEANSSPQDRLTLPQFQKQLFEDYGESHFAVNQQPYLYFQVLFLTAQFEAAIAFLFRLERTRCHAVHVALALFELKLLLKSTGQSAQLLSQEPGEPQGVRRLNFIRLLMLYTRKFEPTDPREALQYFYFLRNEKDNQGESMFLRCVSELVIESREFDMLLGKLEKDGSRKPGAIDKFTRDTKTIINKVASVAENKGLFEEAAKLYDLAKNPDKVLELTNKLLSPVVSQISAPQSNRERLKNMALAIAERYKSQGVSAEKSINSTFYLLLDLITFFDEYHAGHIDLSFDVIERLKLVPLSQDSVEERVAAFRNFSDEIRHNLSEILLATMNILFTQYKRLKGSGPTTLGRPQRVQEDKDSVLRSQARALITFAGMIPYRMSGDTNARLVQMEVLMN
As to B1, the percent of Nup93 co-immunoprecipitated in assay [1] and in assay [2] was 45% in each case.
